The data set concerns NC(=O)c1ccc[n+]([C@@H]2O[C@H](COP(=O)([O-])OP(=O)(O)OC[C@H]3O[C@@H](n4cnc5c(N)ncnc54)[C@H](O)[C@@H]3O)[C@@H](O)[C@H]2O)c1. Briefly: NAD-dependent deacetylation of di-acetylated H3 peptide by recombinant yeast Sir2p (HPLC). Type of data set: biochemical. Conditions: other: reaction about 50% of maximal level; pH 9.0. The procedure: The typical reaction of Sir2 deacetylase activity was performed in 50 μl of buffer containing 50 mM Tris-HCl [pH 9.0], 4 mM MgCl2, 0.2 mM DTT, variable concentration of cold nicotinamide adenine dinucleotide (NAD) or NAD derivatives (SIGMA®, MO), 5-10 μg of the purified recombinant Sir2 proteins, and 10 μg of the histone H3 N-terminal tail peptide (amino acid 1-20) di-acetylated at positions 9 and 14 (Upstate Biotechnology™, NY). […] To detect the ADP-ribosylation activity, 8 μCi of NAD 5′-[α-^32P]triphosphate (˜1000 Ci/mmol, Amersham Pharmacia Biotech™, NJ) was added to the same reaction containing 1 μM cold NAD. Histone H3 protein (4 μg) (Roche Molecular Biochemicals™, IN) were used for this assay. All reaction mixtures were incubated at room temperature for 1 hr. Trichostatin A and coumermycin A1 (SIGMA™) were prepared in dimethylsulfoxide (DMSO, SIGMA®), and 5 μl of solvent or inhibitor was added to the reactions prior to adding Sir2 proteins.
After the incubation, the products were precipitated at −20° C. overnight by adding 50 μl of distilled water and 25 μl of 100% trichloroacetic acid (TCA) solution. […] The chromatograms at the absorbance of 210 nm were digitally recorded and analyzed by Hewlett Packard ChemStation™ system (version A.06.03 [509]). […] PTH amino acid chromatograms were recorded and analyzed by the ABI Model 610A2.1 data integration/analysis system. […]

In US8642284B1, “Methods for identifying agents that alter NAD-dependent deacetylation activity of a SIR2 protein” (Massachusetts Institute of Technology, priority 1999, dated 2014) one finds Km data, which are given here for one substance.

Broadly, the Km is the concentration of substrate that gives half-maximal velocity. For the substance Sir2p (Saccharomyces cerevisiae S288C), the Michaelis-Menten constant (Km) amounted to 100 µM.
